For four sequences, binding results are on record in publication PMC3828302.

Assay in all cases: EMSA
Common to all, as to conditions: 10 mM Tris-HCl pH 7.4, 50 mM KCl, 1 mM DTT, 100 mg/mL BSA (so in the source), 5 ng/mL poly[dI-dC], 200 uM c-di-GMP, 30 C 20 min; 5% native PAGE with 50 uM c-di-GMP …
On the technique in general: Mobility shift assays separate free from complexed probe on a gel.

In data set [1] the target is T1, MrkH-8xHis (Klebsiella pneumoniae AJ218) (UniProt G3FT00).
T1 sequence: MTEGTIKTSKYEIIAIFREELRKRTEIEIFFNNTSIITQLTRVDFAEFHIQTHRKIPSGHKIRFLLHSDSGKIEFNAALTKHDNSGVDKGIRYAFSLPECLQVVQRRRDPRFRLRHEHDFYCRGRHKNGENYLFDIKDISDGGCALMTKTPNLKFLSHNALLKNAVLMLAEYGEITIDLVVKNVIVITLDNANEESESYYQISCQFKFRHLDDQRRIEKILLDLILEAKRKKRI

The target of data set [2] is T2, MrkH 15AS16-8xHis internal_change (Klebsiella pneumoniae AJ218) (UniProt G3FT00).
T2 sequence: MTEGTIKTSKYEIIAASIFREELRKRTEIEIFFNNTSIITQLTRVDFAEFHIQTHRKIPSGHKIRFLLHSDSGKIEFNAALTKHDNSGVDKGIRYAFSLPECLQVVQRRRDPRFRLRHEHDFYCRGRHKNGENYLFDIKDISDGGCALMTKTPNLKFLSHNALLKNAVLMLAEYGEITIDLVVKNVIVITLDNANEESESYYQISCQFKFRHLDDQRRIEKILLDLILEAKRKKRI

The target of data set [3] is T3, MrkH 202AS203-8xHis internal_change (Klebsiella pneumoniae AJ218) (UniProt G3FT00).
T3 sequence: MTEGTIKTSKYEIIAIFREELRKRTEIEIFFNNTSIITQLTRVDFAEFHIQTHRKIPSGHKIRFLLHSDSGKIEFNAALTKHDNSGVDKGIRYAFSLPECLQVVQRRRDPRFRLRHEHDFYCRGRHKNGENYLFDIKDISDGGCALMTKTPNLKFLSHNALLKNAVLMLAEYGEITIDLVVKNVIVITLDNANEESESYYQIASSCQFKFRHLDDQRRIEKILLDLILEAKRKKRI

The target of data set [4] is T4, MrkH 217AS218-8xHis internal_change (Klebsiella pneumoniae AJ218) (UniProt G3FT00).
T4 sequence: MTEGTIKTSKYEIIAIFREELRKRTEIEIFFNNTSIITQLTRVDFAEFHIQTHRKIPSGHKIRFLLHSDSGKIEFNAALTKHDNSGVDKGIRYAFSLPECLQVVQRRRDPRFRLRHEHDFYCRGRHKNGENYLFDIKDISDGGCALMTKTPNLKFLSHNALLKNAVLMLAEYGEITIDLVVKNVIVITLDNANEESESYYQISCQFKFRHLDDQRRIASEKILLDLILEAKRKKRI

In data set [5] the target is T5, MrkH 39AS40-8xHis internal_change (Klebsiella pneumoniae AJ218) (UniProt G3FT00).
T5 sequence: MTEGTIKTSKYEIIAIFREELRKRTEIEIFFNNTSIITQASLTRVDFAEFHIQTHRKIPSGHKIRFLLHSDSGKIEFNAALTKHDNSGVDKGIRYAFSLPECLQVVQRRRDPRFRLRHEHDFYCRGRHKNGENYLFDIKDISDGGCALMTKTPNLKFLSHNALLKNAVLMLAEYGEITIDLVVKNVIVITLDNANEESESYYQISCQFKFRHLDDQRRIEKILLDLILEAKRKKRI

For “GCTGTTGCGGTCACTTTCTCTCGCTCTGGCGTTAGGCTTGCTGCGCTGTAAACAACCACCCTCGCGTTTTCATCTAAGAATGACTGTTTATTAATAGTCGATGGTTATCTGTTATATAACTTAATGAAACGTGAACAAATGTATATTTGTCGGCGAATAAATAGCATTCTTTGACGCCGATAGCACCAGCGAACTTATATTTTTAGGTTCGTTACCTGACGCCTTAAATATTGCGGCTCCCGGTCAGTCGAAGATTCTATTAGCAGTGGC (double strand) [mrkA fragment, MrkH box mut-6]”, the binding entry in data set [1] is “binds more weakly”.

Take “GCTGTTGCGGTCACTTTCTCTCGCTCTGGCGTTAGGCTTGCTGCGCTGTAAACAACCACCCTCGCGTTTTCATCTATCAATGACTGTTGCAGCATAGTCGATGGTTATCTGTTATATAACTTAATGAAACGTGAACAAATGTATATTTGTCGGCGAATAAATAGCATTCTTTGACGCCGATAGCACCAGCGAACTTATATTTTTAGGTTCGTTACCTGACGCCTTAAATATTGCGGCTCCCGGTCAGTCGAAGATTCTATTAGCAGTGGC (double strand) [mrkA fragment, UP mutation]”: the binding result in data set [1] is on record as “binds”.

Regarding “GCTGTTGCGGTCACTTTCTCTCGCTCTGGCGTTAGGCTTGCTGCGCTGTAAACAACCACCCTCGCGTTTTCATCTATCAATGACTGTTTATTAATAGTCGATGGTTATCTGTTATATAACTTAATGAAACGTGAACAAATGTATATTTGTCGGCGAATAAATAGCATTCTTTGACGCCGATAGCACCAGCGAACTTATATTTTTAGGTTCGTTACCTGACGCCTTAAATATTGCGGCTCCCGGTCAGTCGAAGATTCTATTAGCAGTGGC (double strand) [mrkA promoter fragment, wild type]”, the binding result in data set [2] is “binds”; in data set [3] it was “no binding”; in data set [4], “no binding”; in data set [5] it was “binds”; in data set [1], “binds”.

In the case of “GCTGTTGCGGTCACTTTCTCTCGCTCTGGCGTTAGGCTTGCTGCGCTGTAAACAACCACCCTCGCGTTTTCATCTCCCAATGACTGTTTATTAATAGTCGATGGTTATCTGTTATATAACTTAATGAAACGTGAACAAATGTATATTTGTCGGCGAATAAATAGCATTCTTTGACGCCGATAGCACCAGCGAACTTATATTTTTAGGTTCGTTACCTGACGCCTTAAATATTGCGGCTCCCGGTCAGTCGAAGATTCTATTAGCAGTGGC (double strand) [mrkA fragment, MrkH box mut-5]”, in data set [1], the binding entry is listed as “binds more weakly”.
